In data set [1] the target is alpha-synuclein oligomers (human, UniProt P37840 1-140). The data set can be described thus: microchip free-flow electrophoresis, single-molecule counting (DigitISA); 100 nM aptamer; complex 32.7 pM; 10 mM HEPES pH 7.4, 0.05% Tween-20, room temperature (IgE; fibrils and exosomes same buffer); FUS: 50 mM Tris-HCl pH 7.4, 25 mM KCl, 0.02% Tween-20, on-chip des.
Another data set addresses CD63 on exosomes (human? (MDA-MB-231 breast cancer cell …, UniProt P08962 2-238)). The data set can be described thus: microchip free-flow electrophoresis, single-particle counting (DigitISA); 5, 50, 100 nM aptamer; isolated exosomes; 10 mM HEPES pH 7.4, 0.05% Tween-20, room temperature (IgE; fibrils and exosomes same buffer); FUS: 50 mM Tris-HCl pH 7.4, 25 mM KCl, 0.02% Tween-20, on-chip desalting; oligomers: from PBS pH 7.4, on-chip desalting. As to conditions: protein: native; tags: none; label: fluorescent label, not specified.

The target of a further data set is FUS-SNAP (UniProt P35637 1-526). Nature of the data set: microchip free-flow electrophoresis (DigitISA); 700 nM aptamer, 2 uM FUS, condensates present; monomer-bound vs free; 10 mM HEPES pH 7.4, 0.05% Tween-20, room temperature (IgE; fibrils and exosomes same buffer); FUS: 50 mM Tris-HCl pH 7.4, 25 mM KCl, 0.02% Tween-20, on-chip desalting; oligomers: from PBS pH 7.4, on-chip desalting. Particulars: protein: recombinant; tags: SNAP; label: 3'-Atto488.

Usually Kd stands for the constant that tells how readily two partners part at equilibrium.

Sequence of CD63 on exosomes (human? (P08962 2-238): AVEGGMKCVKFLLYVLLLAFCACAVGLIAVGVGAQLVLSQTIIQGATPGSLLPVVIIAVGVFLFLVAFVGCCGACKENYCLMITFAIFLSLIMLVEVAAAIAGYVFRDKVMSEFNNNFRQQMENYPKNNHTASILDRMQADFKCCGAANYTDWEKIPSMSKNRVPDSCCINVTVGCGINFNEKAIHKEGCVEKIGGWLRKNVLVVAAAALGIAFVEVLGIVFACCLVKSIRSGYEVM
Sequence of FUS-SNAP (P35637 whole entry): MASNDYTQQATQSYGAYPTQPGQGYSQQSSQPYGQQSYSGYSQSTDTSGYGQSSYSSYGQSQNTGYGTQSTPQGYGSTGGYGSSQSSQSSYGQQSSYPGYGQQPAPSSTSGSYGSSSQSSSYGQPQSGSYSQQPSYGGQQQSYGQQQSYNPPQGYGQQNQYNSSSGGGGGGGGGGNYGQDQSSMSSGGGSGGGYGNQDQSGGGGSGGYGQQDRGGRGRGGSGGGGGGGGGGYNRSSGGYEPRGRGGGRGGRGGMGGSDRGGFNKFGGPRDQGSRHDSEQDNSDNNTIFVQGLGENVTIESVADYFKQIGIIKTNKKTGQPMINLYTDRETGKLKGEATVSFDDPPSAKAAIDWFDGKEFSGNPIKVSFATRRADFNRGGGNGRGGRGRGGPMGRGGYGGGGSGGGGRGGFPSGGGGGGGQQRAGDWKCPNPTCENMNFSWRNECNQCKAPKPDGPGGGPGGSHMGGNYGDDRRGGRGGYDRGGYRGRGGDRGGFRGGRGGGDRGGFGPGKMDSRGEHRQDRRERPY

B1: T-SO606 aptamer (structured_DNA)
DNA: TTTTGGGTCGGCTGTCCGTGGGTGGGGA
On to B1, for which, in data set [1], the binding result is listed as “binds”.

B2: CD63 aptamer (structured_DNA)
DNA: CACCCCACCTCGCTCCCGTGACACTAATGCTA
In the case of B2, the binding result with CD63 on exosomes is “binds”.

B3: GGUG RNA aptamer (ssRNA)
RNA: UUGUAUUUUGAGCUAGUUUGGUGAC
For the molecule B3, the dissociation constant (Kd) in the data set with FUS-SNAP turned out to be 280 ± 20 nM.

Values taken from article PMC9902533, “Direct digital sensing of protein biomarkers in solution”.
